According to patent US20250277013A1 (published 2025):
One block for each binder: values may come before it.

Assays:
[1] = target: T1, Protein Tyrosine Phosphatase Receptor Type Z1 (PTPRZ1) peptide on HLA-A*02:01 (human); experiment: multimer staining
T1 peptide: MIWEHNVEV

[2] = target: T2, Neuroligin-4, X-linked (NLGN4X) peptide on HLA-A*02:01 (human); experiment: multimer staining
T2 peptide: NLDTLMTYV

- binding result [1]: recognises
B1: PTPRZ1(1814-1822)-specific TCR (TCR, V domains shown)
Valpha: AQSVTQLDSQVPVFEEAPVELRCNYSSSVSVYLFWYVQYPNQGLQLLLKYLSGSTLVKGINGFEAEFNKSQTSFHLRKPSVHISDTAEYFCAVSDRGAGNMLTFGGGTRLMVKP
Vbeta: GAGVSQSPSNKVTEKGKDVELRCDPISGHTALYWYRQSLGQGLEFLIYFQGNSAPDKSGLPSDRFSAERTGGSVSTLTIQRTQQEDSAVYLCASSLGLAGGLAGELFFGEGSRLTVL

- binding result [2]: recognises
B2: NLGN4X(131-139)-specific TCR (TCR, V domains shown)
Valpha: RKEVEQDPGPFNVPEGATVAFNCTYSNSASQSFFWYRQDCRKEPKLLMSVYSSGNEDGRFTAQLNRASQYISLLIRDSKLSDSATYLCVVTDSGNTGKLIFGQGTTLQVKP
Vbeta: GAVVSQHPSWVICKSGTSVKIECRSLDFQATTMFWYRQFPKQSLMLMATSNEGSKATYEQGVEKDKFLINHASLTLSTLTVTSAHPEDSSFYICSARVDYNEQFFGPGTRLTVL
